Measurements reported in patent publication US20140274782A1, “AFFINITY REAGENTS AND METHODS FOR DETECTION, PURIFICATION, AND PROTEOMIC ANALYSIS OF METHYLATED PROTEINS” (The Board of Trustees of the Leland Stanford Junior …, priority 2013, published 2014).

T1: G9a and GLP (Homo sapiens, UniProt Q96KQ7+Q9H9B1)
T1 sequence (Q96KQ7 2-1210 limits assumed): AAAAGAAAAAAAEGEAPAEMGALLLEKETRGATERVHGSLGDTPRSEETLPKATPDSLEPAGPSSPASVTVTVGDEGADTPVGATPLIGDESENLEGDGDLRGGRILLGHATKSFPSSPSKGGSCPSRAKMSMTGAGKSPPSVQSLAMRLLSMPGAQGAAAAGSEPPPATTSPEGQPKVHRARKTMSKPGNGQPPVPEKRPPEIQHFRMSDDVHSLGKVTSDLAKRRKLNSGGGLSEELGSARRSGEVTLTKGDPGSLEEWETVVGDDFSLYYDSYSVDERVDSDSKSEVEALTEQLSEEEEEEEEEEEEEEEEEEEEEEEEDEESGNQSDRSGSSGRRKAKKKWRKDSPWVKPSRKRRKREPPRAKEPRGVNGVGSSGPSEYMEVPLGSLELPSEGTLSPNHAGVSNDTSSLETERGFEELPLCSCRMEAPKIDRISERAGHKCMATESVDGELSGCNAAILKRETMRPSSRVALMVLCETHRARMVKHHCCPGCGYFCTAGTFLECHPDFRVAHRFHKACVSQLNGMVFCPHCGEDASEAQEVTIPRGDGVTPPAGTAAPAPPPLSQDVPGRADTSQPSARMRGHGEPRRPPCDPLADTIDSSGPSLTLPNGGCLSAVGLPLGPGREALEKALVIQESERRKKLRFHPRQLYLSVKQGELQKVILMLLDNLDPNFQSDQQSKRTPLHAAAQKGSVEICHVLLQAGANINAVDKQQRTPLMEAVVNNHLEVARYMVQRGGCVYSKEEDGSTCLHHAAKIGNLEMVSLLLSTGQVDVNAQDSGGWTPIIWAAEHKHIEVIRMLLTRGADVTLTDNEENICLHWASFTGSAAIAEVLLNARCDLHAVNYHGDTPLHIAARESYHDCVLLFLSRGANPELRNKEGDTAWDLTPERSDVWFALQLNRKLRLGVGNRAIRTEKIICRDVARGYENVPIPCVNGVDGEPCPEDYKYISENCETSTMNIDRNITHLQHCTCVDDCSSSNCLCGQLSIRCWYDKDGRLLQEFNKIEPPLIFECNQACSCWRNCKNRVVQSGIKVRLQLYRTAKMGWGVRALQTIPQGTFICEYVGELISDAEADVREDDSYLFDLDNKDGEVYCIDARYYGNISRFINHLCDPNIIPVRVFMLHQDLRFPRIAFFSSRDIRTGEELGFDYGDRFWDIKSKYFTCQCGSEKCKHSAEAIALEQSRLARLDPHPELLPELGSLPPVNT
T1 sequence (Q9H9B1 2-1298 limits assumed): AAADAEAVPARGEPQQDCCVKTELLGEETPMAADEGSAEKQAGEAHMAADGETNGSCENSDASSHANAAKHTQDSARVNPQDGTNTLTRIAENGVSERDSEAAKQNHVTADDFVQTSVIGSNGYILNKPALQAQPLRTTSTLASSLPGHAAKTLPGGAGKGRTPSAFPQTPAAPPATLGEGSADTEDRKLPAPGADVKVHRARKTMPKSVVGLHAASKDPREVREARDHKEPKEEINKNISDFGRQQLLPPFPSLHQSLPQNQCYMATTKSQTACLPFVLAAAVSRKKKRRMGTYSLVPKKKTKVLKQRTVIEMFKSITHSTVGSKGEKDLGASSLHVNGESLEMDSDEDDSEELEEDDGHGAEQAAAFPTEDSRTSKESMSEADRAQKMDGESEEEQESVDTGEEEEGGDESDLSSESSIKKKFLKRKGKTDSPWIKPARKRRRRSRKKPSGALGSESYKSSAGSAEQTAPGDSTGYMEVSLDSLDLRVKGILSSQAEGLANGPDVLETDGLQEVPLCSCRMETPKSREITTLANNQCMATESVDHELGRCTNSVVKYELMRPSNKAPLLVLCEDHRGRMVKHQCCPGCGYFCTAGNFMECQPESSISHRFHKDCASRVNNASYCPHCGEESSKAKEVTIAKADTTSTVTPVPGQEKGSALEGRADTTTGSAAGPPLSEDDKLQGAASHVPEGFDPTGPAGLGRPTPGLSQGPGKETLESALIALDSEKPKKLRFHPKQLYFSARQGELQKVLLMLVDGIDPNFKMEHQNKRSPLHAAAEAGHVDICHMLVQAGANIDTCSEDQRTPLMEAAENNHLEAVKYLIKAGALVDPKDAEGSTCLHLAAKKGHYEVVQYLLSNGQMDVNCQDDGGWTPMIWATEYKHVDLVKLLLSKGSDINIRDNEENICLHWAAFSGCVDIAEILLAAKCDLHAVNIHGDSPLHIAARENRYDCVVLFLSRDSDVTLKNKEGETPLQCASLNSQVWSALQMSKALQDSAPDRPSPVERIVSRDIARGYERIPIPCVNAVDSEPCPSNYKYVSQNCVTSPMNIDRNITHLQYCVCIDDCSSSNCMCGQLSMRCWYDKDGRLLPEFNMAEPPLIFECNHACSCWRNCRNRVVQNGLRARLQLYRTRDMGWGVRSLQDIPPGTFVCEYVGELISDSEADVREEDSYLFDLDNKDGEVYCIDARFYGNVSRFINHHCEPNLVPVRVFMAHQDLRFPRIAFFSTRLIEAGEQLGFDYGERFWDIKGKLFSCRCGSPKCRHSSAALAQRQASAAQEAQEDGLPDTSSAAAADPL

B1: ALKBH5 (protein, UniProt Q6P6C2 2-394, looked up)
RNA demethylase ALKBH5: AAASGYTDLREKLKSMTSRDNYKAGSREAAAAAAAAVAAAAAAAAAAEPYPVSGAKRKYQEDSDPERSDYEEQQLQKEEEARKVKSGIRQMRLFSQDECAKIEARIDEVVSRAEKGLYNEHTVDRAPLRNKYFFGEGYTYGAQLQKRGPGQERLYPPGDVDEIPEWVHQLVIQKLVEHRVIPEGFVNSAVINDYQPGGCIVSHVDPIHIFERPIVSVSFFSDSALCFGCKFQFKPIRVSEPVLSLPVRRGSVTVLSGYAADEITHCIRPQDIKERRAVIILRKTRLDAPRLETKSLSSSVLPPSYASDRLSGNNRDPALKPKRSHRKADPDAAHRPRILEMDKEENRRSVLLPTHRRRGSFSSENYWRKSYESSEDCSEAAGSPARKVKMRRH
B2: TCOF1 (protein, UniProt Q13428 1-1488, looked up)
Treacle protein: MAEARKRRELLPLIYHHLLRAGYVRAAREVKEQSGQKCFLAQPVTLLDIYTHWQQTSELGRKRKAEEDAALQAKKTRVSDPISTSESSEEEEEAEAETAKATPRLASTNSSVLGADLPSSMKEKAKAETEKAGKTGNSMPHPATGKTVANLLSGKSPRKSAEPSANTTLVSETEEEGSVPAFGAAAKPGMVSAGQADSSSEDTSSSSDETDVEGKPSVKPAQVKASSVSTKESPARKAAPAPGKVGDVTPQVKGGALPPAKRAKKPEEESESSEEGSESEEEAPAGTRSQVKASEKILQVRAASAPAKGTPGKGATPAPPGKAGAVASQTKAGKPEEDSESSSEESSDSEEETPAAKALLQAKASGKTSQVGAASAPAKESPRKGAAPAPPGKTGPAVAKAQAGKREEDSQSSSEESDSEEEAPAQAKPSGKAPQVRAASAPAKESPRKGAAPAPPRKTGPAAAQVQVGKQEEDSRSSSEESDSDREALAAMNAAQVKPLGKSPQVKPASTMGMGPLGKGAGPVPPGKVGPATPSAQVGKWEEDSESSSEESSDSSDGEVPTAVAPAQEKSLGNILQAKPTSSPAKGPPQKAGPVAVQVKAEKPMDNSESSEESSDSADSEEAPAAMTAAQAKPALKIPQTKACPKKTNTTASAKVAPVRVGTQAPRKAGTATSPAGSSPAVAGGTQRPAEDSSSSEESDSEEEKTGLAVTVGQAKSVGKGLQVKAASVPVKGSLGQGTAPVLPGKTGPTVTQVKAEKQEDSESSEEESDSEEAAASPAQVKTSVKKTQAKANPAAARAPSAKGTISAPGKVVTAAAQAKQRSPSKVKPPVRNPQNSTVLARGPASVPSVGKAVATAAQAQTGPEEDSGSSEEESDSEEEAETLAQVKPSGKTHQIRAALAPAKESPRKGAAPTPPGKTGPSAAQAGKQDDSGSSSEESDSDGEAPAAVTSAQVIKPPLIFVDPNRSPAGPAATPAQAQAASTPRKARASESTARSSSSESEDEDVIPATQCLTPGIRTNVVTMPTAHPRIAPKASMAGASSSKESSRISDGKKQEGPATQVSKKNPASLPLTQAALKVLAQKASEAQPPVARTQPSSGVDSAVGTLPATSPQSTSVQAKGTNKLRKPKLPEVQQATKAPESSDDSEDSSDSSSGSEEDGEGPQGAKSAHTLGPTPSRTETLVEETAAESSEDDVVAPSQSLLSGYMTPGLTPANSQASKATPKLDSSPSVSSTLAAKDDPDGKQEAKPQQAAGMLSPKTGGKEAASGTTPQKSRKPKKGAGNPQASTLALQSNITQCLLGQPWPLNEAQVQASVVKVLTELLEQERKKVVDTTKESSRKGWESRKRKLSGDQPAARTPRSKKKKKLGAGEGGEASVSPEKTSTTSKGKAKRDKASGDVKEKKGKGSLGSQGAKDEPEEELQKGMGTVEGGDQSNPKSKKEKKKSDKRKKDKEKKEKKKKAKKASTKDSESPSQKKKKKKKKTAEQTV
B3: MTHFD1 (protein, UniProt P11586 1-935, looked up)
C-1-tetrahydrofolate …: MAPAEILNGKEISAQIRARLKNQVTQLKEQVPGFTPRLAILQVGNRDDSNLYINVKLKAAEEIGIKATHIKLPRTTTESEVMKYITSLNEDSTVHGFLVQLPLDSENSINTEEVINAIAPEKDVDGLTSINAGKLARGDLNDCFIPCTPKGCLELIKETGVPIAGRHAVVVGRSKIVGAPMHDLLLWNNATVTTCHSKTAHLDEEVNKGDILVVATGQPEMVKGEWIKPGAIVIDCGINYVPDDKKPNGRKVVGDVAYDEAKERASFITPVPGGVGPMTVAMLMQSTVESAKRFLEKFKPGKWMIQYNNLNLKTPVPSDIDISRSCKPKPIGKLAREIGLLSEEVELYGETKAKVLLSALERLKHRPDGKYVVVTGITPTPLGEGKSTTTIGLVQALGAHLYQNVFACVRQPSQGPTFGIKGGAAGGGYSQVIPMEEFNLHLTGDIHAITAANNLVAAAIDARIFHELTQTDKALFNRLVPSVNGVRRFSDIQIRRLKRLGIEKTDPTTLTDEEINRFARLDIDPETITWQRVLDTNDRFLRKITIGQAPTEKGHTRTAQFDISVASEIMAVLALTTSLEDMRERLGKMVVASSKKGEPVSAEDLGVSGALTVLMKDAIKPNLMQTLEGTPVFVHAGPFANIAHGNSSIIADRIALKLVGPEGFVVTEAGFGADIGMEKFFNIKCRYSGLCPHVVVLVATVRALKMHGGGPTVTAGLPLPKAYIQENLELVEKGFSNLKKQIENARMFGIPVVVAVNAFKTDTESELDLISRLSREHGAFDAVKCTHWAEGGKGALALAQAVQRAAQAPSSFQLLYDLKLPVEDKIRIIAQKIYGADDIELLPEAQHKAEVYTKQGFGNLPICMAKTHLSLSHNPEQKGVPTGFILPIRDIRASVGAGFLYPLVGTMSTMPGLPTRPCFYDIDLDPETEQVNGLF

Assays:
[1] = molecular target: T1, G9a and GLP; assay: Triple SILAC pull-down after UNC0638 treatment of 293T cells, DMSO/UNC0638 ratio of protein captured by 3×MBT; type: cell-based; set-up: cells were treated for 24 hours with UNC0638 at 2.5 μM or DMSO vehicle control; endogenous in cells; host or cells: HEK 293T; conditions: for Relative to UNC0638 UNC Heavy / Relative to UNC0638 UNC Light: SILAC ratio DMSO/UNC0638 of protein pulled down with 3xMBT; for Relative to UNC0638 UNC Heavy: UNC0638 in heavy SILAC media; for Relative to UNC0638 UNC Light: UNC0638 in light SILAC media; for Relative to UNC0638 Average: average of UNC Light and UNC Heavy experiments;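 for all read-outs here: mass spectrometry (Q-Exactive) SILAC quantitation, DMSO/UNC0638 ratio computed after subtracting 3×MBTD355N mutant pull-down background, only proteins with at least twofold 3×MBT over mutant signal considered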
[2] = system: 3×MBT domain of L3MBTL1; assay: Triple SILAC pull-down, 3xMBT/3xMBTD355N ratio (cytoplasmic, nuclear and chromatin fractions of 293T cells); type: binding, human; conditions: SILAC ratio, pull-down 3xMBT vs 3xMBTD355N; for 3xMBT/D355N UNC Heavy: experiment with UNC0638 in heavy SILAC media; for 3xMBT/D355N UNC Light: experiment with UNC0638 in light SILAC media;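 for all read-outs here: proteins quantified with MaxQuant, requiring at least two unique peptides and quantification in both label directions, normalized to the mean of proteins from a digested loading control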

| Molecule | Relative to UNC0638 UNC Heavy [1] [log base 2] | Relative to UNC0638 UNC Light [1] [log base 2] | Relative to UNC0638 Average [1] [log base 2] | 3xMBT/D355N UNC Heavy [2] [log base 2] | 3xMBT/D355N UNC Light [2] [log base 2] |
| --- | --- | --- | --- | --- | --- |
| B1 | 0.29 | −0.01 | 0.14 | 1.96 | 1.73 |
| B2 | −0.10 | 0.38 | 0.14 | 0.67 | 3.27 |
| B3 | 0.05 | 0.23 | 0.14 | 1.99 | 2.35 |
